# Assay results as given in patent US20220204633A1 (UNIVERSIT T Z RICH, published 2022).
# B1: human IL-12Fc NHQ (Fc fusion)
# chain: IWELKKDVYVVELDWYPDAPGEMVVLTCDTPEEDGITWTLDQSSEVLGSGKTLTIQVKEFGDAGQYTCHKGGEVLSHSLLLLHKKEDGIWSTDILKDQKEPKNKTFLRCEAKNYSGRFTCWWLTTISTDLTFSVKSSRGSSDPQGVTCGAATLSAERVRGDNKEYEYSVECQEDSACPAAEESLPIEVMVDAVHKLKYENYTSSFFIRDIIKPDPPKNLQLKPLKNSRQVEVSWEYPDTWSTPHSYFSLTFCVQVQGKSKREKKDRVFTDKTSATVICRKNASISVRAQDRYYSSSWSEWASVPCSGGGGSGGGGSGGGGSRNLPVATPDPGMFPCLHHSQNLLRAVSNMLQKARQTLEFYPCTSEEIDHEDITKDKTSTVEACLPLELTKNESCLNSRETSFITNGSCLASRKTSFMMALCLSSIYEDLKMYQVEFKTMNAKLLMDPKRQIFLDQNMLAVIDELMQALNFNSETVPQKSSLEEPDFYKTKIKLCILLHAFRIRAVTIDRVMSYLNASKVDKRVESKYGPPCPPCPAPEFLGGPSVFLFPPKPKDTLMNSRTPEVTCVVVDVSQEDPEVQFNWYVDGVEVHNAKTKPREEQFNSTYRVVSVLTVLHQDWLNGKEYKCKVSNKGLPSSIEKTISKAKGQPREPQVYTLPPSPEEMTKNQVSLTCLVKGFYPSDIAVEWESNGQPENNYKTTPPVLDSDGSFFLYSRLTVDKSRWQEGNVFSCSVMHEALHNQYTQKSLSLSLGK
# notes: also called NHQ variant
# Biological target: T1, human recombinant biotinylated FcRn (Immunitrack) (human, UniProt P55899 24-297; P61769 21-119, limits assumed, biotinylated (site not stated))
# T1 construct: Immobilized on a ProteOn NLC chip for SPR at pH 6.0; also called human FcRn; human recombinant FcRn
# T1 sequence (P55899 24-297 limits assumed, chain 1 of 2): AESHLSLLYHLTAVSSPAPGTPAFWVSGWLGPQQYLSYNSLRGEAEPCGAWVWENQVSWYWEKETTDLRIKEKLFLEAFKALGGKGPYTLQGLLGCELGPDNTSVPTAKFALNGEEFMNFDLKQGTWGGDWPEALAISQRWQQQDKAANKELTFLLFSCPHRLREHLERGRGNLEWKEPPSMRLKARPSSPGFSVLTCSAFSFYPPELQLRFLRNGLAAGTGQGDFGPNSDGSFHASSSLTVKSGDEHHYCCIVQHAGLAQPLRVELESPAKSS
# T1 sequence (P61769 21-119 limits assumed, chain 2 of 2): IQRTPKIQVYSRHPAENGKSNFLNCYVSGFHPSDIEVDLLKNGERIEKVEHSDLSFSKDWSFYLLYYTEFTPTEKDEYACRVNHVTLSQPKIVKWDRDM
# Test: SPR, human FcRn immobilized, IL-12Fc variants in liquid phase, pH 6.0
binder,measurement,value
B1,fold reduction of affinity against IL-12Fc WT,~8 fold
